Measurements reported in article PMC2752052.

Test system: NC(=O)c1ccc[n+]([C@@H]2O[C@H](COP(=O)([O-])OP(=O)(O)OC[C@H]3O[C@@H](n4cnc5c(N)ncnc54)[C@H](O)[C@@H]3O)[C@@H](O)[C@H]2O)c1
Assay: purified protein
Type: biochemical, Homo sapiens

CD38 (Homo sapiens)
Km: 17 ± 6 µM
